Data as given in the supplement of paper PMC7877785.
± gives the uncertainty stated by the source.

Test: self-splicing fitness, log relative to wild type (ln ratio); higher = more splicing; Tetrahymena group I intron in knt gene, E. coli kanamycin selection, DiMSum; sequences stand for … in CUCUCU…GGAGGGAAAAGUUAUCAGGCAUGCACCUGGUAGCUAGUCUUUAAACCAAUAGAUUGCAUCGGUUUAAAAGGCAAGACCGUCAAAUUGCGGGAAAGGGGUCAACAGCCGUUCAGUACCAAGUCUCAGGGGAAACUUUGAGAUGGCCUUGCAAAGGGUAUGGUAAUAAGCUGACGGACAUGGUCCUAACCACGCAGCCAAGUCCUAAGUCAACAGAUCUUCUGUUGAUAUGGAUGCAGUUCACAGACUAAAUGUCGGUCGGGGAAGAUGUAUUCUUCUCAUAAGAUAUAGUCGGACCUCUCCUUAAUGGGAGCUAGCGGAUGAAGUGAUGCAACACUGGAGCCGCUGGGAACUAAUUUGUAUGCGAAAGUAUAUUGAUUAGUUUUGGAGUACUCGUGGUCG
Method in brief: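 A randomised library covering all eight P1ex-region intron nucleotides was built with the intron in the knt kanamycin-resistance gene on pET-22b(+) and held in E. coli BL21(DE3). Cells were grown overnight at 37°C or 30°C on LB agar, with or without 25 μg/mL kanamycin, plus 100 μg/mL carbenicillin, 50 μM IPTG and 0.2% rhamnose, and pooled colonies were amplicon-sequenced on an Illumina HiSeq 2500. DiMSum fitness is the error-weighted combination of wild-type-normalised replicate fold changes, kanamycin versus none.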

Sequence | self-splicing fitness (ln) (30 °C) | self-splicing fitness (ln) (37 °C)
ACCGAGCAAUAUUACGGGGU | -3.7 ± 0.17 | -2.46 ± 0.17
GUACAGCAAUAUUACGGGCA | -1.9 ± 0.093 | -0.873 ± 0.088
UGGGAGCAAUAUUACGAGUG | -2.24 ± 0.31 | -0.927 ± 0.28
UGGUAGCAAUAUUACGUUGG | -1.4 ± 0.12 | -1.7 ± 0.14
GAACAGCAAUAUUACGGACG | -1.88 ± 0.11 | -0.3 ± 0.12
AAAGAGCAAUAUUACGAUGA | -3.01 ± 0.25 | -2.02 ± 0.19
UCUAAGCAAUAUUACGAGUC | -3.41 ± 0.3 | -2.93 ± 0.3
GAGGAGCAAUAUUACGCCCA | 0.0821 ± 0.26 | -0.507 ± 0.37
AUAUAGCAAUAUUACGCGAC | -2.73 ± 0.22 | -2.32 ± 0.21
AUUUAGCAAUAUUACGGGAC | -2.36 ± 0.32 | -1.32 ± 0.26
GACCAGCAAUAUUACGGGGU | -3.79 ± 0.19 | -1.82 ± 0.14
UAAAAGCAAUAUUACGACUU | -0.473 ± 0.098 | -0.07 ± 0.15
CUAAAGCAAUAUUACGAAGG | -1.03 ± 0.095 | -0.0689 ± 0.14
GUUUAGCAAUAUUACGGAAC | -2.74 ± 0.39 | –
UUCCAGCAAUAUUACGCUGA | -3.73 ± 0.24 | -1.91 ± 0.14
GAACAGCAAUAUUACGCAUG | -1.18 ± 0.064 | -0.291 ± 0.08
UCCUAGCAAUAUUACGUGCC | -2.26 ± 0.33 | -2.02 ± 0.39
GAGAAGCAAUAUUACGUAUG | -2.37 ± 0.14 | -1.29 ± 0.14
UAUAAGCAAUAUUACGUGAA | 0.0802 ± 0.12 | -0.933 ± 0.15
GAGUAGCAAUAUUACGCCAC | -3.64 ± 0.28 | -0.452 ± 0.21
GGAAAGCAAUAUUACGAACU | -0.854 ± 0.1 | 0.214 ± 0.12
CCUGAGCAAUAUUACGCCUU | -2.73 ± 0.28 | -2.01 ± 0.2
AGCAAGCAAUAUUACGUACA | -1.22 ± 0.074 | -0.296 ± 0.085
GCUCAGCAAUAUUACGACCA | -0.232 ± 0.18 | -0.532 ± 0.15

Sequence | self-splicing fitness (ln) (30 °C) | self-splicing fitness (ln) (37 °C)
AUUAAGCAAUAUUACGGAUC | -1.85 ± 0.16 | -0.479 ± 0.18
AGCCAGCAAUAUUACGCCGG | – | -3.39 ± 0.27
UAAGAGCAAUAUUACGUCAC | -2.67 ± 0.3 | -2.04 ± 0.34
UCAAAGCAAUAUUACGCCUA | -2.71 ± 0.2 | -0.722 ± 0.11
GGGCAGCAAUAUUACGUGCG | -0.439 ± 0.057 | -0.235 ± 0.077
UUCCAGCAAUAUUACGUAGC | -3.54 ± 0.17 | -1.51 ± 0.2
CGGCAGCAAUAUUACGGUAA | -2.56 ± 0.13 | -2.33 ± 0.13
AGUCAGCAAUAUUACGUUUG | -4.04 ± 0.21 | -2.53 ± 0.19
ACUAAGCAAUAUUACGCUCC | -1.24 ± 0.096 | -0.322 ± 0.13
ACGGAGCAAUAUUACGAUCG | -0.961 ± 0.088 | -1.14 ± 0.14
AUAAAGCAAUAUUACGCGAA | -1.19 ± 0.088 | -0.188 ± 0.1
UGUUAGCAAUAUUACGACGA | -0.147 ± 0.12 | 0.253 ± 0.15
AAGGAGCAAUAUUACGGAUU | -2.19 ± 0.11 | -1.69 ± 0.095
CCGCAGCAAUAUUACGGGAG | -3.26 ± 0.16 | -3.06 ± 0.24
AAGAAGCAAUAUUACGAAAA | -1.8 ± 0.17 | -1.57 ± 0.18
ACUCAGCAAUAUUACGGGAU | -1.32 ± 0.056 | -0.522 ± 0.076
GAGCAGCAAUAUUACGGGCA | -1.48 ± 0.17 | -0.674 ± 0.13
AAAUAGCAAUAUUACGUUAG | -4.15 ± 0.42 | -3.24 ± 0.3
GCGCAGCAAUAUUACGGCGA | -0.0713 ± 0.075 | -0.173 ± 0.089
GUCAAGCAAUAUUACGCACG | -1.96 ± 0.13 | -1.49 ± 0.19
GAGAAGCAAUAUUACGUCGU | -2.16 ± 0.075 | -0.855 ± 0.077
GAAUAGCAAUAUUACGAGGG | -3.39 ± 0.18 | -3.25 ± 0.19
CGGAAGCAAUAUUACGGAUA | -3.36 ± 0.41 | -1.81 ± 0.18
AACAAGCAAUAUUACGCCCC | -0.645 ± 0.24 | 0.323 ± 0.26
